Source: ChEMBL document CHEMBL1140019, “Primary amides as selective inhibitors of cathepsin K” (Bioorg Med Chem Lett, 2007)

What was measured:
Settings in all cases: Homo sapiens
[1] = substrate: CC(C)C[C@H](N[C@@H](c1ccc(-c2ccc(S(C)(=O)=O)cc2)cc1)C(F)(F)F)C(=O)NCC(N)=O; test: (§1) Activity of humanized rabbit cathepsin K at 25 uM
[2] = substrate: CC(C)C[C@H](N[C@@H](c1ccc(-c2ccc(S(C)(=O)=O)cc2)cc1)C(F)(F)F)C(=O)N[C@@H](C)C(N)=O; test: as §1
[3] = substrate: CSCC[C@H](NC(=O)[C@H](CC(C)C)N[C@@H](c1ccc(-c2ccc(S(C)(=O)=O)cc2)cc1)C(F)(F)F)C(N)=O; test: as §1
[4] = substrate: Cc1cc(=O)oc2cc(NC(=O)[C@H](CCCN=C(N)N)NC(=O)[C@H](CC(C)C)NC(=O)OCc3ccccc3)ccc12; test: as §1
[5] = substrate: CC(C)C[C@H](N[C@@H](c1ccc(-c2ccc(S(C)(=O)=O)cc2)cc1)C(F)(F)F)C(=O)NCC(N)=O; test: (§2) Ratio of Kcat to Km for humanized rabbit cathepsin K; design: unit not given here
[6] = substrate: CC(C)C[C@H](N[C@@H](c1ccc(-c2ccc(S(C)(=O)=O)cc2)cc1)C(F)(F)F)C(=O)N[C@@H](C)C(N)=O; test: as §2; design: unit not given here
[7] = substrate: CSCC[C@H](NC(=O)[C@H](CC(C)C)N[C@@H](c1ccc(-c2ccc(S(C)(=O)=O)cc2)cc1)C(F)(F)F)C(N)=O; test: as §2; design: unit not given here
[8] = substrate: Cc1cc(=O)oc2cc(NC(=O)[C@H](CCCN=C(N)N)NC(=O)[C@H](CC(C)C)NC(=O)OCc3ccccc3)ccc12; test: as §2; design: unit not given here

B1: Cathepsin K (Homo sapiens), P43235 (protein)
chain: MWGLKVLLLPVVSFALYPEEILDTHWELWKKTHRKQYNNKVDEISRRLIWEKNLKYISIHNLEASLGVHTYELAMNHLGDMTSEEVVQKMTGLKVPLSHSRSNDTLYIPEWEGRAPDSVDYRKKGYVTPVKNQGQCGSCWAFSSVGALEGQLKKKTGKLLNLSPQNLVDCVSENDGCGGGYMTNAFQYVQKNRGIDSEDAYPYVGQEESCMYNPTGKAAKCRGYREIPEGNEKALKRAVARVGPVSVAIDASLTSFQFYSKGVYYDESCNSDNLNHAVLAVGYGIQKGNKHWIIKNSWGENWGNKGYILMARNKNNACGIANLASFPKM
For B1, the Km [1] was 0.119 µM, the kcat [1] was 23.2 s⁻¹ and the Km [2] was 0.087 µM. For the same protein, the kcat [2] was 23.2 s⁻¹, the kcat [3] was 3.25 s⁻¹ and the Km [4] was 2 µM. It also gave a kcat [4] of 79 s⁻¹, a kcat/Km [5] of 0.19 and a kcat/Km [6] of 0.26. The kcat/Km [7] was 0.54 and the kcat/Km [8] was 0.04.
